# Laboratory results: patent CN115703834A (BOAOXIN BIOTECHNOLOGY NANJING CO LTD, dated 2023)
# B1: 抗人CD47单克隆抗体1A5 (antibody, V domains shown)
# VH: EVQLQQSGAELVRSGASVTLSCTASGFNIKDYYMNWVKQRPEQGLEWIGWIGPENGDTENDPRFQGKATMTADTSSNTAFLQLSSLTSEDTAFYYCNAGGRGGFPYWGQGTLVTVST
# VL: DILLTQTPLSLPVSLGDQASFSCRSSQNIVHINGKTYLEWYLQKPGQSPKLLIYRVSNRFSGVPDRFSGSGSGTDFTLKISRVEAEDLGVYYCFQGSHVPRTFGGGTKLEIK
# notes: also called 本发明的单克隆抗体1A5; 本发明的抗体1A5
# Experiments:
# [1] = biological target: T1, 人CD47 (表面过表达人CD47的293F细胞) (human, UniProt Q08722 19-323); experiment: flow cytometry on 293F cells overexpressing human CD47
# T1 construct: whole, on cells; also called 表面过表达人CD47的稳定细胞系293F
# [2] = biological target: T2, 重组人CD47-his蛋白 (ACRO biosystems, cat#CD7-H5227, MW 15.6 kDa) (human, UniProt Q08722 19-139, biotin-labelled in the ELISA assays (sites not given); unlabelled in Biacore); experiment: SPR (Biacore T200), antibody captured on goat anti-mouse IgG, CD47-his in flow
# T2 construct: Bought protein; The same catalogue number is used unlabelled (SPR) and biotin-labelled (ELISAs); also called 人CD47蛋白; 生物素标记的人CD47; not shown: His tag
# T2 sequence (Q08722 19-139 limits assumed): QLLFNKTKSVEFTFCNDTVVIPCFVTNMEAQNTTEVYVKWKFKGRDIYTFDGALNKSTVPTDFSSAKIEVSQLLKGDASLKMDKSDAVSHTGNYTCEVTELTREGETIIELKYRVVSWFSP
# T1 sequence (Q08722 19-323): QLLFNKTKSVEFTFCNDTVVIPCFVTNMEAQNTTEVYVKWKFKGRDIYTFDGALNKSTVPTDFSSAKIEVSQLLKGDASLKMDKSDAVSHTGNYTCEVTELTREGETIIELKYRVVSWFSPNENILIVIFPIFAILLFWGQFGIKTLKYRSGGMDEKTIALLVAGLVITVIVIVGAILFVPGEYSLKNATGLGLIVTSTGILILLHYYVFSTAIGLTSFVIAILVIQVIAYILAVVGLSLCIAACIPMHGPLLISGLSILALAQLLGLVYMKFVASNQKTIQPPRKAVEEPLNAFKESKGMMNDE
binder,measurement,setting,value
B1,binding result,[1],binds
same,binding result,[2],binds
